Where two headings read alike, the source gives them in different places.
Legend:
[1] = molecular target: cyno IgE c(epsilon)2-c(epsilon)3-c(epsilon)4 Fc fragment with C-terminal (His)10 tag (cynomolgus monkey); experiment: Alphascreen, competition with HuFc(epsilon)RI(alpha)Fc for cyno IgE Fc
[2] = molecular target: cyno IgE c(epsilon)2-c(epsilon)3-c(epsilon)4 Fc fragment with C-terminal (His)10 tag (cynomolgus monkey); experiment: as above; remark: listed apart in the source

cyno IgE c(epsilon)2-c(epsilon)3-c(epsilon)4 Fc fragment with C-terminal (His)10 tag (cynomolgus monkey), sequence (chain, as listed by the source): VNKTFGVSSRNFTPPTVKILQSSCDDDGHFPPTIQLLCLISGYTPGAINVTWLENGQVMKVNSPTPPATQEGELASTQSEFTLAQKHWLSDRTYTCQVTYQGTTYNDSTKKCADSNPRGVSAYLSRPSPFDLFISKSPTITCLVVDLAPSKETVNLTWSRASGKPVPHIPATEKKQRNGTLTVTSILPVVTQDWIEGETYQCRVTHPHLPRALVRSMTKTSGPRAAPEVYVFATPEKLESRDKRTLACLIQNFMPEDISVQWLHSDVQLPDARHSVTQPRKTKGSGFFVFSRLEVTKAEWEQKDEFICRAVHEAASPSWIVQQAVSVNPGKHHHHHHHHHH

% inhibition at 250 nM [1]: 99.3%
IC50 [1]: 1.39 nM
% inhibition at 250 nM [2]: 97.7%
IC50 [2]: 1.3 nM
Substance: Fab obtained by papain digestion of commercially obtained omalizumab
